Experimental data taken from PMC3068626, “Cholesterol utilization in mycobacteria is controlled by two TetR-type transcriptional regulators: kstR and kstR2”.

B1: Rv3549c/Rv3550 probe (dsDNA)
DNA 1: GCGTACCAAGCAAGTGCTTGCTTAGGTAGC
DNA 2: GCTACCTAAGCAAGCACTTGCTTGGTACGC
B2: Rv3557c/Rv3558 probe (dsDNA)
DNA 1: GCTGGCCGAGCAAGCGCTTGGTTGATAGTC
DNA 2: GACTATCAACCAAGCGCTTGCTCGGCCAGC
B3: Rv3560c/Rv3561 probe (dsDNA)
DNA 1: GCTAACCTACCAAGCACTTGCTTTGTTAGG
DNA 2: CCTAACAAAGCAAGTGCTTGGTAGGTTAGC
B4: Rv3557c/Rv3558 probe, DIG-labelled (dsDNA)
DNA 1: B2 DNA 1
DNA 2: B2 DNA 2

Legend:
KstR2Mtb [1] = target: T1, KstR2Mtb (Mycobacterium tuberculosis, UniProt P9WMB9 1-200); assay: EMSA; 1 uM DNA, 6 uM protein, 10 mM MgCl2; 20 mM Tris/HCl pH 8.0, 10 mM MgCl2, 75 mM NaCl, 20 min at 37 C; […]; conditions: protein: recombinant; tags: none in EMSA (His6 tag removed with TEV protease); chain copies: 2; label: none (ethidium bromide stain); blunt
KstR2Mtb [2] = target: T1, KstR2Mtb; assay: EMSA; 20 mM Tris/HCl pH 8.0, 10 mM MgCl2, 75 mM NaCl, 20 min at 37 C; […]; conditions: protein: recombinant; tags: none in EMSA (His6 tag removed with TEV protease); chain copies: 2; label: 3' DIG-11-ddUTP (end-labelled)

T1 sequence (P9WMB9 whole entry): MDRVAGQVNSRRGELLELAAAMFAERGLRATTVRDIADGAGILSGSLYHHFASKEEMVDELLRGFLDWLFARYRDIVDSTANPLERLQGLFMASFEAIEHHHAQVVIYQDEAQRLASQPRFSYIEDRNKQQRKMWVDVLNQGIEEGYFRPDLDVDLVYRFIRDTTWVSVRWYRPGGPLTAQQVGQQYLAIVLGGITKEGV

Binder	binding result (KstR2Mtb [1])	binding result (KstR2Mtb [2])
B1	binds	
B2	binds	
B3	binds	
B4		binds
